Test results: article PMC5550728, “Retinoschisin Facilitates the Function of L-Type Voltage-Gated Calcium Channels” (Frontiers in Cellular Neuroscience, 2017)

Molecular target: T1, human full-length RS1 fused to the GAL4 DNA binding domain (pBind-RS1) (human, UniProt O15537 1-224)
T1 construct: 224 amino acids), so with its own signal peptide in the construct; source: Cos1 cells, transfected (mammalian two-hybrid fusion)
T1 sequence (looked up): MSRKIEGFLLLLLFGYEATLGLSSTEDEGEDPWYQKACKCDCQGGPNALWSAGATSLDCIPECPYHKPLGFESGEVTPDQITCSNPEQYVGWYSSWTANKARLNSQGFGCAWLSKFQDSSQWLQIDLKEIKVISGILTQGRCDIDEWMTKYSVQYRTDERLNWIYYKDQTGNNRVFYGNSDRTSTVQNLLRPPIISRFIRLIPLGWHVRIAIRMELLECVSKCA
Assay: two-hybrid; mammalian two-hybrid (luciferase reporter) in Cos1 cells: pBind-RS1 (GAL4 DNA binding domain, bait), pACT-Cav1.4-N terminal (VP16 activation domain), pG5Luc, 100 ng each; controls with empty pBind or pACT; n = 6
Details: partners not purified

relative luciferase activity, fold over the controls: ≥ 4 fold
B1: human Cav1.4 N-terminal fragment fused to the VP16 activation domain (pACT-Cav1.4-N terminal) (domain or fragment)
chain: not shown
notes: the methods give 1-1481 bp from ATG, which is about 493 codons; the exact C-terminal limit follows from the reverse primer; also called hCav1.4-N; source: Cos1 cells, transfected (mammalian two-hybrid fusion)
